{
  "source": "patent US20150160214A1",
  "about": "“Quantitation of Cellular Adhesion Dynamics Across Immobilized Receptors Under Rheological Shear Flow” (Mayo Foundation for Medical Education and Research, priority 2013, published 2015)",
  "key": {"platelet GP1bα": {"tested_on": "platelet GP1bα", "experiment": "Platelet pause times and translocation velocities on immobilized A1 under shear flow, parallel-plate flow chamber (Example 1)", "format": "cell-based, human", "conditions": "as a function of shear rate", "source_text": "To understand the effect of the N-terminal peptide on the function of the A1-domain of vWF, the protein was expressed with (A1-1238) and without the N-terminal peptide (A1-1261). The inventor used a flow chamber to measure the dynamics of platelet interactions with A1-1238 and A1-1261. Each domain variant was immobilized on glass slides with a modified Cu^2+ chelating chemistry that enabled surface capture via the N-terminally fused histidine tag. This method ensured reproducible capture of the proteins eliminating possible structural issues associated with nonspecific immobilization on plastic or glass. The slides were completely inert to platelets. Next, 1 mL of citrated whole blood followed by Tris buffered saline was perfused at low shear to enable platelets to attach to the surface immobilized domains. After red cells were perfused away with buffer, the translocation of the remaining attached platelets over the surfaces was recorded at each shear rate and the velocities and pause times calculated from the coordinate data of each platelet on the surface as described in the methods. […] In addition, the translocation velocities were increased for A1-1238 relative to A1-1261. To determine if this N-terminal sequence could inhibit the catch bond when free in solution, the inventor incubated surface immobilized A1-1261 with excess free peptide and added the free peptide to 1 mL of whole blood and to our perfusion buffer and performed the assay.\nDetermination of platelet pause times. Determination of platelet pause times A Glycotech† rectangular parallel-plate flow chamber was mounted to slides with a chelated Cu 21 surface obtained from Microsurfaces Inc. # to which the A1-1261 and A1-1238 domains in TBS were immobilized by the 63His-Tag. Citrated whole blood (1 mL) obtained from informed consent of healthy donors with approval from the Baylor College of Medicine institutional review board followed by buffer was perfused through the chamber at 300s21 for A1-1261 and 700s21 for A1-1238 shear rate to attach platelets to the surface immobilized proteins using a syringe driven variable flow rate pump. The shear was increased incrementally and 1 min movies were recorded at 25 frames/s in phase contrast with 232 pixel binning on a Zeiss Axiocam MRm camera attached to a Zeiss Axio Observer D1 inverted microscope. Tracking analysis was performed using Mediacybernetics ImagePro Premier§. The resulting X-Y coordinate data for each platelet track was differentiated into instantaneous velocities using a Savitzky-Golay algorithm (Savitzky:1964) with a five data point window size and a second-order polynomial implemented into a Mathamatica notebook. These platelet tracks were retained for statistical analysis if the platelet was present for at least 1 s and travelled a total distance greater than 1 lm. Distance travelled in pixels was converted to lm given the camera pixel size=6.45 μm^2, pixel binning, and microscope magnification=400×. Pause times were determined by the amount of time (seconds) a platelets velocity was =0±0.13 μm/s, within the noise. Pause times for all platelet tracks are reported as the mean of the medians. Examples of this analysis for individual platelets and for multiple platelets are provided in the Supporting Information.\nFrame by frame platelet trajectory analysis. Tracking coordinates of individual platelets in units of pixels were exported from ImagePro Premier as a text file and imported into a Mathematica notebook that calculates a Savitzky-Golay first derivative of the total distance traveled over time (Savitzky:1964). The distance was calculated from the X and Y coordinates with the following equation.\nPause times were determined from the length of time the platelet velocity remained within 0±4 pixel/sec=0.129 μm/sec as illustrated in FIG. 8B. Median pause times were calculated from velocity time profiles for all platelet tracks, stored in a list and translated to histograms for multiple platelets. […]"}, "[1]": {"experiment": "Secondary structure contribution calculated from CD-spectra (CDNN)", "format": "physicochemical", "procedure": "Fluorescence and circular dichroism spectra of A1 and of RCAM A1 were measured to compare the basic spectroscopic properties of the two protein variants (FIG. 13). The fluorescence spectrum of native A1 has a relatively low intensity with λmax of ˜345 nm. In presence of 2 M GdnHCl the fluorescence intensity increases as the interior of the protein becomes solvent accessible and a red shift of the spectrum to ˜351 nm occurs. […] Nevertheless, RCAM A1 is still retains significant secondary structure content in solution; the distribution of which is summarized in Table 1. In the near UV, the CD of disulfide-intact A1 show a well-defined spectral banding pattern between 260 and 300 nm indicating significant tertiary structure content that is absent in RCAM A1.\nUrea and GdnHCl induced unfolding of A1 and of RCAM A1 at 25° Celsius was monitored via CD at 222 nm on an Aviv Biomedical Model 420C circular dichroism spectrometer. A 1 mm quartz cuvette and protein concentrations of 5 or 10 μM were used. Samples were equilibrated in their urea or GdnHCl containing buffer at 25° Celsius overnight. CD-signal was averaged for 5 to 10 min using an integration time of 1 s. CD-spectra were measured at 20° Celsius using 0.1 or 1 mm quartz cells with a step width of 1 nm between 190 and 260 nm with an integration time of 20 s and a bandwidth of 1 nm. CD-spectra in the near UV range (260-360 nm) were recorded using a 5 cm quartz cell with a 120 s integration time. Transition curves and protein spectra were corrected for the CD Signal of the corresponding buffer."}, "[2]": {"conditions": "calculated from CD-spectra, CDNN"}},
  "data": [
    {"substance": "A1-1238: Recombinant human vWF A1 domain, amino acids Q1238-P1471, with N-terminal 6×His-Tag, disulfide intact", "values": [
      {"measurement": "Platelet translocation velocities on immobilized domain (comparison)", "setting": "platelet GP1bα", "value": "increased"},
      {"measurement": "% α-Helix", "setting": "[1]; [2]", "value": 38.0, "unit": "%"},
      {"measurement": "% β-sheet", "setting": "[1]; [2]", "value": 15.6, "unit": "%"},
      {"measurement": "% Remainder", "setting": "[1]; β-turns and random coil structure", "value": 46.4, "unit": "%"}
    ]}
  ]
}
